No end group written: not given here.
Key:
ubiquitin [1] = biological target: T1, ubiquitin (Homo sapiens (Human), UniProt P0CG47 1-76, The screen used fluorescently labelled ubiquitin. The ITC and pull-down assays used unlabelled (native) ubiquitin.); test: isothermal titration calorimetry in solution
T1 construct: Unlabeled in ITC and in the pull-down assays; also called native ubiquitin

ubiquitin [2] = biological target: T1, ubiquitin; test: isothermal titration calorimetry in solution, against NH2-RWDRYYF
GST-KIX [3] = biological target: T2, GST-KIX (mouse, UniProt P45481 378-817); test: protein retained on TentaGel beads with scrambled peptide, SDS-PAGE/Western blot
T2 construct: range 378-817; also called GSTCBP(378-817); GST fusion of CBP(378-817)

GST-Mdm2 = biological target: T3, GST-Mdm2 (human, UniProt Q00987 1-188); test: as above
T3 construct: range 1-188; also called GST fused human Mdm2

maltose-binding protein = maltose-binding protein (UniProt P0AEX9 27-392 = MBP); test: fluorescence polarization titration in solution
His6Gal80 = biological target: T4, His6Gal80 (UniProt P04387 1-435); test: protein retained on TentaGel beads with scrambled peptide, SDS-PAGE/Western blot
T4 construct: also called Gal80 protein; Gal 80 protein; not shown: N-terminal His6 tag from vector pProEX-1
T4 sequence (looked up): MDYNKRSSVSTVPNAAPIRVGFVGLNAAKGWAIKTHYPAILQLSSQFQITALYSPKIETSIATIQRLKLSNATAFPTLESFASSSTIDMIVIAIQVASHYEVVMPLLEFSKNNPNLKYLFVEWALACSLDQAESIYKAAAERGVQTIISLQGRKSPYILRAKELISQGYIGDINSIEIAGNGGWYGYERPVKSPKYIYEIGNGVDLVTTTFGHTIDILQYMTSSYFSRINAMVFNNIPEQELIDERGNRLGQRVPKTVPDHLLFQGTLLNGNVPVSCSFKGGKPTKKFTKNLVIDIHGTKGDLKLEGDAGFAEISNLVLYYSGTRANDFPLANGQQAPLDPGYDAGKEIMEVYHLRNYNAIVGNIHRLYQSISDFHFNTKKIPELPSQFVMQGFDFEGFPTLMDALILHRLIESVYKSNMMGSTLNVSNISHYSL

GST-KIX [4] = biological target: T2, GST-KIX; test: fluorescence polarization titration in solution; paragraph 167 gives this value for His6-KIX and GST-KIX
Description: (§1) Determination of solution binding constants.
(§2) Complex half life of immobilized peptides and dimeric proteins. Peptide libraries are rich sources of protein-binding molecules and there exist many straightforward methods to screen such libraries. […] To test the surface-mediated avidity concept, a collection of peptides known to bind different proteins were assembled, some homodimers and some monomers.

His6-KIX [5] = biological target: T5, His6-KIX (mouse, UniProt P45481 378-817); test: as above
T5 construct: range 378-817; Monomer; also called CBP(378-817) from pRSET-CBP(378-817); not shown: N-terminal His6 tag of vector pRSET-A
Description: as §1, §2

GST-KIX [6] = biological target: T2, GST-KIX; test: dilution assay on TentaGel beads, Western blot
GST-KIX [7] = biological target: T2, GST-KIX; test: fluorescence polarization after adding excess unlabeled peptide
Description: (§3) Fluorescence anisotropy measurements were taken every 30 seconds.
as §2

His6-KIX [8] = biological target: T5, His6-KIX; test: as above
Description: as §3, §2

T2 sequence (P45481 378-817): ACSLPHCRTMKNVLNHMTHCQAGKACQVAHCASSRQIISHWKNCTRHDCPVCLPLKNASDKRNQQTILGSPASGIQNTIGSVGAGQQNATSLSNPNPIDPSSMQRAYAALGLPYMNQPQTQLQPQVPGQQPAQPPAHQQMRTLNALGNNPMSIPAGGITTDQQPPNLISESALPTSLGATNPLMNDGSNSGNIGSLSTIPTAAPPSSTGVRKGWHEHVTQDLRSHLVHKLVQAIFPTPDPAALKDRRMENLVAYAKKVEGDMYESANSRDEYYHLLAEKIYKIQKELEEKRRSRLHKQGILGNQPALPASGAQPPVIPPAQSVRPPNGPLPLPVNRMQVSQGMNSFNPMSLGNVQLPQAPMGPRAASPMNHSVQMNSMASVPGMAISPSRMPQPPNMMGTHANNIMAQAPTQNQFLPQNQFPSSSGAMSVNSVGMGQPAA
T5 sequence (P45481 378-817): as above
T3 sequence (Q00987 1-188): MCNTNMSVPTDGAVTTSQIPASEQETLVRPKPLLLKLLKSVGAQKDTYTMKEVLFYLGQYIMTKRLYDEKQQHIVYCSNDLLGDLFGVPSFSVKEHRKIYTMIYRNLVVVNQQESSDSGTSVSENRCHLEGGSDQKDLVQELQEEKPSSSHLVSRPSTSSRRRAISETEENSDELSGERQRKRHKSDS

B1: NH2-RWDRYYF (peptide)
peptide: H-RWDRYYF
notes: Hit of a seven residue peptide library; also called ubiquitin lead peptide; lead peptide
B1 gave a Kd (ubiquitin [1]) of 33 µM.

In the case of H-WGLRALESRWDRYYF (Hit of the library NH2-X7-S-RWDRYYF) [NH2-WGLRALESRWDRYYF], the Kd (ubiquitin [1]) is reported as 12 µM and the “fold better in solution than the lead peptide” value (ubiquitin [2]) is reported as ~3 fold.

FSASFTEVVDAGWVSPWSVE (attached to TentaGel resin in the bead assays, Scrambled control of KIXbp1) [KIXbp1scram]: no binding (tested: 300 nM) (GST-KIX [3]).

NVKWLDPNQELPSFLTSLE (attached to TentaGel resin in the bead assays, Scrambled control of Mdm2bp) [Mdm2bpscram]: no binding (tested: 300 nM) (GST-Mdm2).

B2: Mdm2bp (peptide)
peptide: PLSQETFSDLWKLLPENNV
modifications: not fully specified (N-terminus, C-terminus); also: N-terminal carboxyfluorescein only in solution titrations, attached to TentaGel resin in bead assays
notes: also called p53 derived peptide; p53-derived peptide
B2: no binding (maltose-binding protein).

B3: Gal80bpscram (peptide)
peptide: DLQRDTNKGFHEMFDWDYQN
modifications: attached to TentaGel resin in the bead assays
notes: Scrambled control of Gal80bp; also called Ga180bpscram; scrambled version of Gal80 bp
B3: no binding (tested: 300 nM) (His6Gal80).

B4: KIXbp1 (peptide)
peptide: SVPGSVSWFEFWSAVDAVET
modifications: not fully specified (N-terminus); also: N-terminal carboxyfluorescein only in solution titrations, attached to TentaGel resin in bead assays
notes: Phage display 20-mer
For B4, the Kd (GST-KIX [4]) was 8 µM, the Kd (His6-KIX [5]) was 8 µM and the “half-life of the immobilized complex” value (GST-KIX [6]) was > 2 h. For the same binder, the “half-life of the complex in solution” value (GST-KIX [7]) was < 10 s and the “half-life of the complex in solution” value (His6-KIX [8]) was < 10 s.
